Experimental data taken from patent US20260125649A1, “MEDIUM COMPOSITION AND METHOD FOR CULTURING MESENCHYMAL STEM CELLS” (ACADEMIA SINICA, priority 2018, published 2026).

Test system: cyclin A2, cyclin D1, cyclin D2, cyclin D3, cyclin E1, CDK4, CDK9, Oct4, Sox2, c-Myc, Lin28
Assay: Western blotting of cell cycle regulators and pluripotency factors in MSCs
Format: cell-based, human
Details: EpEX 3 μg/mL
Description: The proliferation of MSCs was examined by measuring doubling time. MSCs were treated with EpEX (3 μg/mL) for 24 and 48 h. Cell number was counted and then doubling time was calculated. MSCs were treated with EpEX (3 μg/mL) for the indicated times. After treatment, protein expression of cell cycle regulators (cyclin D1, cyclin D2, cyclin D3, cyclin E1, CDK4 and CDK9) and pluripotency factors (Oct4, Sox2, c-Myc, and Lin28) was examined by Western blotting.
Phospho-EGFR (Tyr845) was detected by Western blotting. […] After treatment, cell cycle progression was investigated by flow cytometry with PI staining. Fraction of cells in each phase (G1, S, G2/M) of the cell cycle was evaluated. Cells that expressed EGFR shRNA or shLuc were treated with EpEX for 18 h. After treatment, cell cycle progression was investigated by flow cytometry with PI staining. Fraction of cells in each phase (G1, S, G2/M) of the cell cycle was evaluated. […]
After treatment, the protein levels of total STAT3 and phospho-STAT3 (Tyr705) were examined by Western blotting. […] Fraction of cells in each phase (G1, S, G2/M) of the cell cycle was evaluated. […] Fraction of cells in each phase (G1, S, G2/M) of the cell cycle was evaluated. […]
The expression of let-7 was detected by qPCR. […] The expression of let-7 was detected by qPCR. […]

B1: EpEX: extracellular domain of human EpCAM, 265 amino acids in length (SEQ ID NO: 2) (protein, listed as Homo sapiens)
chain: MAPPQVLAFGLLLAAATATFAAAQEECVCENYKLAVNCFVNNNRQCQCTSVGAQNTVICSKLAAKCLVMKAEMNGSKLGRRAKPEGALQNNDGLYDPDCDESGLFKAKQCNGTSMCWCVNTAGVRRTDKDTEITCSERVRTYWIIIELKHKAREKPYDSKSLRTALQKEITTRYQLDPKFITSILYENNVITIDLVQNSSQKTQNDVDIADVAYYFEKDVKGESLFHSKKMDLTVNGEQLDLDPGQTLIYYVDEKAPEFSMQGLK
protein expression of cell cycle regulators (cyclin A2, D1, D2, D3, E1, CDK4, CDK9): significantly increased | protein expression of pluripotency markers (Oct4, Sox2, c-Myc, Lin28): significantly increased
